This note sets out measurements from paper PMC7584632.

For experiment [1], the target named is SpyCas9 (Streptococcus pyogenes).
The target is the same in experiment [2]. This is another data set of the same source.

The substance AcrIIA4 (natural protein) returned a mutagenesis rate by NHEJ (T7E1 assay) with the AcrIIA4-2A-Cas9 vector; SpyCas9 vector alone 8.0% in experiment [1] of 0.9%.

As to “AcrIIA4-hCdt1(30–120) (from UniProt Q9H211 30-120)”, in experiment [1], the mutagenesis rate by NHEJ (T7E1 assay) with the AcrIIA4-Cdt1-2A-Cas9 vector; SpyCas9 vector alone 8.0% came out at 3.7%. The repression of the target mutation at AAVS1 (T7E1 assay, ssODN template) against SpyCas9 alone in experiment [2] amounted to 79.1%.
